The record followed here is paper doi:10.1101/2022.08.03.502629.

pKd: −log10 of the molar value.

This test concerns the target antithrombin (UniProt P01008). The experiment in a line: SPR. For orientation: Surface plasmon resonance follows binding to a sensor surface in real time, without labels.
Chain of UniProt P01008 (P01008 33-464): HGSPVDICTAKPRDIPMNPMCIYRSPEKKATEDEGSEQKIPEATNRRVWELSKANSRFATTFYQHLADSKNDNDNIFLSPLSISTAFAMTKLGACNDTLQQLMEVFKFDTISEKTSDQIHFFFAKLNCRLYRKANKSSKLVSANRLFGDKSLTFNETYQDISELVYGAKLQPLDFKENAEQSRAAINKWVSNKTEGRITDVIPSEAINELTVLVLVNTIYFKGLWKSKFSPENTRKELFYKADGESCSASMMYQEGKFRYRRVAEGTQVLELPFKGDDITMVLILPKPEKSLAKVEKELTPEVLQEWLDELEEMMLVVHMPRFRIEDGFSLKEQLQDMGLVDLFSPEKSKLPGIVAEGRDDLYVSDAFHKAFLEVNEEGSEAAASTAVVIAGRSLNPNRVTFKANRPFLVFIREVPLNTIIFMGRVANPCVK

For the substance “S195A Gla-domainless factor Xa (domain or fragment)”, the negative-log Kd (pKd) was 6.38.

“K96Y S195A Gla-domainless factor Xa (domain or fragment)” had a pKd of 6.34.

A word on the pKd: it is −log10 of the Kd, conventionally taken in molar units. Higher therefore signals a small Kd.
